In the supplement of paper PMC10567573:

B1: FAM189A2 (parent)
chain: VAAALRYLQIFATRRSCIDESQIS

Variants of: B1
Experiment: protein stability index of a GFP-peptide fusion (GPS, HEK-293T) (PSI 1-6); higher = more stable
Settings: c terminus: a fixed tail appended
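Note: lentivirally expressed fusions sorted by FACS into six bins by GFP to DsRed ratio, PSI derived from sequencing read proportions per bin multiplied by bin number.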

Row | Variant | protein stability index
1 | VAAALRYLQIFATRRSCIDESEIS [Q22E] | 2.15
2 | VAAALRYLQIFATRRSCIDESFIS [Q22F] | 2.04
3 | VAAALRYLQIFATRRSCIDESTIS [Q22T] | 1.07
4 | VAAALRYLQIFATRRSCIDESCIS [Q22C] | 4.63
5 | VAAALRYLQIFATRRSCIDESDIS [Q22D] | 2.32
6 | VAAALRYLQIFATRRSCIDESVIS [Q22V] | 2.87
7 | VAAALRYLQIFATRRSCIDESYIS [Q22Y] | 1.16
8 | VAAALRYLQIFATRRSCIDESSIS [Q22S] | 2.22
9 | VAAALRYLQIFATRRSCIDESNIS [Q22N] | 1.77
10 | VAAALRYLQIFATRRSCIDESGIS [Q22G] | 3
11 | VAAALRYLQIFATRRSCIDESPIS [Q22P] | 2.26
12 | VAAALRYLQIFATRRSCIDESHIS [Q22H] | 2.61
13 | VAAALRYLQIFATRRSCIDESWIS [Q22W] | 3.61
14 | VAAALRYLQIFATRRSCIDESKIS [Q22K] | 2.53
15 | VAAALRYLQIFATRRSCKDESQIS [I18K] | 2.7
16 | VAAALRYLQIFATRRSCTDESQIS [I18T] | 1.75
17 | VAAALRYLQIFATRRSCYDESQIS [I18Y] | 2.54
18 | VAAALRYLQIFATRRSCWDESQIS [I18W] | 4.01
19 | VAAALRYLQIFATRRSCCDESQIS [I18C] | 2.3
20 | VAAALRYLQIFATRRSCNDESQIS [I18N] | 2.27
21 | VAAALRYLQIFATRRSCGDESQIS [I18G] | 2.2
22 | VAAALRYLQIFATRRSCFDESQIS [I18F] | 4.04
23 | VAAALRYLQIFATRRSCPDESQIS [I18P] | 2.1
24 | VAAALRYLQIFATRRSCQDESQIS [I18Q] | 1.95

Row | Variant | protein stability index
25 | VAAALRYLQIFATRRSCADESQIS [I18A] | 2.58
26 | VAAALRYLQIFATRRSCVDESQIS [I18V] | 1.89
27 | VAAALRYLQIFATRRSCEDESQIS [I18E] | 3.15
28 | VAAALRYLQIFATRRSCDDESQIS [I18D] | 2.02
29 | VAAALRYLQIFATRRSCLDESQIS [I18L] | 2.57
30 | VAAALRYLQIFATRRSCSDESQIS [I18S] | 2.14
31 | VAAALRYLQIFATRRSCHDESQIS [I18H] | 1.52
32 | VAAALRYLQIFATRRSCIDESQAS [I23A] | 1.24
33 | VAAALRYLQIFATRRSCIDESQCS [I23C] | 1.73
34 | VAAALRYLQIFATRRSCIDESQDS [I23D] | 1.77
35 | VAAALRYLQIFATRRSIIDESQIS [C17I] | 2.44
36 | VAAALRYLQIFATRRSQIDESQIS [C17Q] | 2.5
37 | VAAALRYLQIFATRRSLIDESQIS [C17L] | 1.58
38 | VAAALRYLQIFATRRSYIDESQIS [C17Y] | 3.8
39 | VAAALRYLQIFATRRSSIDESQIS [C17S] | 1.74
40 | VAAALRYLQIFATRRSMIDESQIS [C17M] | 2.58
41 | VAAALRYLQIFATRRSVIDESQIS [C17V] | 1.27
42 | VAAALRYLQIFATRRSPIDESQIS [C17P] | 2.05
43 | VAAALRYLQIFATRRSRIDESQIS [C17R] | 1.23
44 | VAAALRYLQIFATRRSTIDESQIS [C17T] | 2.17
45 | VAAALRYLQIFATRRSHIDESQIS [C17H] | 1.27
46 | VAAALRYLQIFATRRSKIDESQIS [C17K] | 1.89
47 | VAAALRYLQIFATRRSCIWESQIS [D19W] | 4.35
48 | VAAALRYLQIFATRRSCIYESQIS [D19Y] | 4.69

Row | Variant | protein stability index
49 | VAAALRYLQIFATRRSCIEESQIS [D19E] | 2.01
50 | VAAALRYLQIFATRRSCIVESQIS [D19V] | 3.57
51 | VAAALRYLQIFATRRSCICESQIS [D19C] | 3.29
52 | VAAALRYLQIFATRRSCINESQIS [D19N] | 2.04
53 | VAAALRYLQIFATRRSCIFESQIS [D19F] | 1.75
54 | VAAALRYLQIFATRRSCIKESQIS [D19K] | 3.22
55 | VAAALRYLQIFATRRSCIQESQIS [D19Q] | 1.13
56 | VAAALRYLQIFATRRSCIPESQIS [D19P] | 1.77
57 | VAAALRYLQIFATRRSCIIESQIS [D19I] | 2.5
58 | VAAALRYLQIFATRRSCIGESQIS [D19G] | 2.56
59 | VAAALRYLQIFATRRSCIRESQIS [D19R] | 2.05
60 | VAAALRYLQIFATRRSCITESQIS [D19T] | 2.36
61 | VAAALRYLQIFATRRSCIMESQIS [D19M] | 3.73
62 | VAAALRYLQIFATRRSCIAESQIS [D19A] | 2.45
63 | VAAALRYLQIFATRRSCILESQIS [D19L] | 3.03
64 | VAAALRYLQIFATRRSCIDPSQIS [E20P] | 3.3
65 | VAAALRYLQIFATRRSCIDSSQIS [E20S] | 2.66
66 | VAAALRYLQIFATRRSCIDRSQIS [E20R] | 1.24
67 | VAAALRYLQIFATRRSCIDTSQIS [E20T] | 3.24
68 | VAAALRYLQIFATRRSCIDLSQIS [E20L] | 3.32
69 | VAAALRYLQIFATRRSCIDGSQIS [E20G] | 2.34
70 | VAAALRYLQIFATRRSCIDNSQIS [E20N] | 2.85
71 | VAAALRYLQIFATRRSCIDKSQIS [E20K] | 3.19
72 | VAAALRYLQIFATRRSCIDQSQIS [E20Q] | 2.35

Row | Variant | protein stability index
73 | VAAALRYLQIFATRRSCIDDSQIS [E20D] | 2.1
74 | VAAALRYLQIFATRRSCIDWSQIS [E20W] | 4.07
75 | VAAALRYLQIFATRRSCIDMSQIS [E20M] | 2.92
76 | VAAALRYLQIFATRRSCIDCSQIS [E20C] | 3.76
77 | VAAALRYLQIFATRRSCIDYSQIS [E20Y] | 3.14
78 | VAAALRYLQIFATRRSCIDASQIS [E20A] | 1.65
79 | VAAALRYLQIFATRRSCIDECQIS [S21C] | 1.98
80 | VAAALRYLQIFATRRSCIDEQQIS [S21Q] | 2.85
81 | VAAALRYLQIFATRRSCIDEHQIS [S21H] | 2.45
82 | VAAALRYLQIFATRRSCIDEKQIS [S21K] | 2.61
83 | VAAALRYLQIFATRRSCIDERQIS [S21R] | 2.78
84 | VAAALRYLQIFATRRSCIDEDQIS [S21D] | 2.28
85 | VAAALRYLQIFATRRSCIDEMQIS [S21M] | 3.11
86 | VAAALRYLQIFATRRSCIDETQIS [S21T] | 2.03
87 | VAAALRYLQIFATRRSCIDENQIS [S21N] | 1.73
88 | VAAALRYLQIFATRRSCIDEEQIS [S21E] | 2.91
89 | VAAALRYLQIFATRRSCIDEYQIS [S21Y] | 4.49
90 | VAAALRYLQIFATRRSCIDEIQIS [S21I] | 4.41
91 | VAAALRYLQIFATRRSCIDEGQIS [S21G] | 1.83
92 | VAAALRYLQIFATRRSCIDEPQIS [S21P] | 1.97
93 | VAAALRYLQIFATRRSCIDEWQIS [S21W] | 2.67
94 | VAAALRYLQIFATRRSCIDELQIS [S21L] | 2.45
